The values that follow come from patent publication US20150344583A1 (Amgen, published 2015).

In experiment [1] the target is T1, human BCMA (huBCMA) on cells (human, UniProt Q02223 1-184).
T1 chain: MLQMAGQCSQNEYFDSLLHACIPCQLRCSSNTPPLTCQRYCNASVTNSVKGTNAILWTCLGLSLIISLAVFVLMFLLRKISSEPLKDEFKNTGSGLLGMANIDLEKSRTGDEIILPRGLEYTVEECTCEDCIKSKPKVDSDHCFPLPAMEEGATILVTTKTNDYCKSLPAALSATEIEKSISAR
The experiment in a line: cell-based or functional assay.

In experiment [2] the target is T1, human BCMA (huBCMA) on cells. The experiment in a line: FACS, H929 cells. For orientation: Flow cytometry measures light scatter and fluorescence of single cells or particles in a stream.
Experiment [3] deals with T2, clipped form of Sumo-huBCMA, SEQ ID NO:354 (human).
T2 construct: also called peak A
T2 chain: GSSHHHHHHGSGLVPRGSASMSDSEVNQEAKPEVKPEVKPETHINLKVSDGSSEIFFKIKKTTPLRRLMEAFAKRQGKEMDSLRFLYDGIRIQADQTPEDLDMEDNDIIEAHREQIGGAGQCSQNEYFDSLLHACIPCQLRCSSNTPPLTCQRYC
The experiment in a line: SEC of antibody and Sumo-BCMA mixtures.

The target of experiment [4] is T3, clipped form of Sumo-huBCMA, SEQ ID NO:356 (human).
T3 construct: the species in the SEC peak came from the Sumo fusion, so it may carry the tag
T3 chain: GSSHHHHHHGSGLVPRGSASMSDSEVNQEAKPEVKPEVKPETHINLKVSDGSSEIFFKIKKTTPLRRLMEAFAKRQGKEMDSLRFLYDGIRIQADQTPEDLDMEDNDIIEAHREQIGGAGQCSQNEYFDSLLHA
The experiment in a line: SEC of antibody and Sumo-BCMA mixtures.

In experiment [5] the target is T4, clipped form of Sumo-huBCMA, SEQ ID NO:355 (human).
T4 chain: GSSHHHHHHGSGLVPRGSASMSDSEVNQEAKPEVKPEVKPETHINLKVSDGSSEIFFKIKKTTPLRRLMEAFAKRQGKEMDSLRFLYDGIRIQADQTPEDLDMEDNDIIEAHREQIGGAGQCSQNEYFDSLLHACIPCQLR
The experiment in a line: SEC of antibody and Sumo-BCMA mixtures.

The target of experiment [6] is T5, cynomolgus (Macaca fascicularis) BCMA on cells (cynomolgus (Macaca fascicularis), UniProt Q02223 1-184 (human entry)).
T5 construct: also called cyno BCMA; cynomolgus BCMA
T5 sequence (Q02223 other isoform, or with tags, fused parts or gaps): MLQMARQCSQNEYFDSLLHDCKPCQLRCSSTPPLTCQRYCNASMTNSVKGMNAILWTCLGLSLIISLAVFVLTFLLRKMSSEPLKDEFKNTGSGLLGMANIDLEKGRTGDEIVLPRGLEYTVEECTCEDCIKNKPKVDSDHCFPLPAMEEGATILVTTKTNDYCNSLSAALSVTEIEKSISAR
The experiment in a line: summary sentence of Example 16; assay for cynomolgus BCMA not given there.

Experiment [7] has as its target T6, clipped form of Sumo-huBCMA, SEQ ID NO:357 (human).
T6 chain: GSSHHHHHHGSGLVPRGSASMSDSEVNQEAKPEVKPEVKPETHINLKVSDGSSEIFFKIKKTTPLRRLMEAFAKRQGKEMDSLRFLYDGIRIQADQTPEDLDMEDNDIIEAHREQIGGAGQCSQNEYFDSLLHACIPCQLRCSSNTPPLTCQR
The experiment in a line: SEC and LC/MS.

The target of experiment [8] is T1, human BCMA (huBCMA) on cells. The experiment in a line: cell-based or functional assay.
For experiment [9] the target is unchanged. The experiment in a line: FACS on H929 cells (native BCMA, relative binding, indirect).
Experiment [10] deals with T7, rhuBCMA fusion protein (6xHis::Sumo::huBCMA(aa 5-51)::GGS::G3::Avi) (human).
T7 construct: the preparation also held C-terminally clipped forms; also called Sumo-BCMA; SumoBCMA
T7 chain: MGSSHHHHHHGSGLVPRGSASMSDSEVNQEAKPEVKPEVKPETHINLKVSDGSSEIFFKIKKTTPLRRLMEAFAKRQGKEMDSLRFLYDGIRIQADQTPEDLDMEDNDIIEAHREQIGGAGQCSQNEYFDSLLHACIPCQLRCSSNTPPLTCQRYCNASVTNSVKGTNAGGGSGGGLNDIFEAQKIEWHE
The experiment in a line: Biacore, antibody captured, rhu BCMA analyte.

The target of experiment [11] is T8, rrat BCMA fusion protein (GS::6xHis::Sumo::ratBCMA(aa 2-49)::GGS::G3::Avi) (rat).
T8 chain: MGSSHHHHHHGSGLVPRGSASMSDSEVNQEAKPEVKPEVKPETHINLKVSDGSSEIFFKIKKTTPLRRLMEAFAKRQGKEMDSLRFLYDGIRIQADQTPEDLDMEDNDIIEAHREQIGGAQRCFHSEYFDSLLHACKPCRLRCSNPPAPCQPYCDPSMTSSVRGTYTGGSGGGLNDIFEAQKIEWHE
The experiment in a line: Biacore, antibody captured, rrat BCMA analyte.

Experiment [12] concerns the target T7, rhuBCMA fusion protein …. The experiment in a line: Biacore, antibody captured, rhu BCMA analyte.
Experiment [13] concerns the target T8, rrat BCMA fusion protein …. The experiment in a line: Biacore, antibody captured, rrat BCMA analyte.

Where two headings read alike, the source gives them in different places.

B1: 2A1-S108R (antibody, V domains shown)
VH: EVQLVESGGGLVKPGRSLRLSCTASGFTFGDYALSWFRQAPGKGLEWVGVSRSKAYGGTTDYAASVKGRFTISRDDSKSFAYLQMNSLKTEDTAVYYCCRSGYSSGWTPFDYWGQGTLVTVSS
VL: not shown
By EC50 (read off the curve) is commonly meant the concentration needed to bring the measured effect to its halfway point. Low readings indicate an effect from little substance, high ones a need for much substance. Take B1: the “ADCC EC50” value in experiment [1] came out at 0.043 µg/mL. The “EC50 (read off the curve)” value in experiment [2] was roughly 0.2 µg/mL.

B2: Ab-1 (2A1CV5) (antibody, human IgG1, lambda, V domains shown)
VH: EVQLVESGGGLVKPGGSLRLSCAASGFTFGDYALSWFRQAPGKGLEWVGVSRSKAYGGTTDYAASVKGRFTISRDDSKSTAYLQMNSLKTEDTAVYYCASSGYSSGWTPFDYWGQGTLVTVSS
VL: not shown
For B2, the binding result in [3], in experiment [4], in experiment [5], in experiment [6] and in experiment [7] was “binds” throughout.

B3: 32B5-MCC-DM1 (antibody, V domains shown)
VH: EVQLLESGGALVQPGGSLRLSCAASGFTFSSYAMNWVRQAPGKGLEWVSAISVGGDTYYADSVKGRFTISRDNSKNTLYLHVNSLSAEDSAVYYCAKDQVTLVRGVWYYYGLDVWGQGTTVTVSS
VL: VIVLIQSPLSLPVTPGEPASISCRSSQSLLHSNGNNYLDWYLQKPGQSPHLLISLGSNRTSGVPDRFSGSGSGTDFTLKISRVEAEDVGFYYCMQALQPPRRFGQGTKLEIKR
notes: MCC-DM1 conjugate of '32B5'
By EC50 is commonly meant the midpoint of the concentration-response curve. Low values mean higher potency in that assay, high ones lower potency in that assay. Consider B3, for which the “IC50, H929 cell growth (CellTiter-Glo, 96 h)” value in experiment [8] is 0.506 nM. In experiment [9], this molecule yielded an EC50 of 7 nM.

B4: Ab-2 (29C12_mut) (antibody, human IgG1, kappa, V domains shown)
VH: EVQLLESGGGLVQPGGSLRLSCAASGFTFSSYAMNWVRQAPGKGLEWVSAISVGGDTYYADSVKGRFTISRDNSKNTLYLQMNSLRAEDTAVYYCAKDQVTMVRGVWYYYGLDVWGQGTTVTVSS
VL: DIVMTQSPLSLPVTPGEPASISCRSSQSLLHSNGNNYLDWYLQKPGQSPHLLISLGSQRTSGVPDRFSGSGSGTDFTLKISRVEAEDVGVYYCMQALQPPRRFGQGTKLEIKR
notes: Human IgG1; also called 29C12 CV2; 29C12cv2
As a reminder, the Kd is the concentration at which binding is half-saturated. Lower therefore signals tighter binding. Regarding B4, the Kd in experiment [10] stood at 1.11 nM; in [11], 2.35 nM.

B5: Ab-3 (32B5_mut) (antibody, human IgG1, kappa, V domains shown)
VH: EVQLLESGGGLVQPGGSLRLSCAASGFTFSSYAMNWVRQAPGKGLEWVSAISVGGDTYYADSVKGRFTISRDNSKNTLYLQVNSLRAEDSAVYYCAKDQVTLVRGVWYYYGLDVWGQGTTVTVSS
VL: DIVLTQSPLSLPVTPGEPASISCRSSQSLLHSNGNNYLDWYLQKPGQSPHLLISLGSQRTSGVPDRFSGSGSGTDFTLKISRVEAEDVGVYYCMQALQPPRRFGQGTKLEIKR
notes: Human IgG1; also called 32B5 CV2; 32B5cv2
On to B5, for which the Kd is 0.75 nM in experiment [12] and 2.07 nM in experiment [13].
